According to paper PMC10599462, “Molecular basis of sulfolactate synthesis by sulfolactaldehyde dehydrogenase from Rhizobium leguminosarum” (Chemical Science, 2023):
Read-outs that look alike come from different tables or passages of the source.

Legend:
[1] = target: T1, RlGabD (SLA dehydrogenase) (Rhizobium leguminosarum, UniProt A0AAJ6N661); assay: biochemical; set-up: gene EV132_10158; recombinant RlGabD; nanoDSF thermal shift (F350/F330 intrinsic fluorescence) of recombinant RlGabD with ligand; settings: nanoDSF, average of 2 replicates; read-out: ∆Tm (Avg)
T1 sequence (A0AAJ6N661 1-489): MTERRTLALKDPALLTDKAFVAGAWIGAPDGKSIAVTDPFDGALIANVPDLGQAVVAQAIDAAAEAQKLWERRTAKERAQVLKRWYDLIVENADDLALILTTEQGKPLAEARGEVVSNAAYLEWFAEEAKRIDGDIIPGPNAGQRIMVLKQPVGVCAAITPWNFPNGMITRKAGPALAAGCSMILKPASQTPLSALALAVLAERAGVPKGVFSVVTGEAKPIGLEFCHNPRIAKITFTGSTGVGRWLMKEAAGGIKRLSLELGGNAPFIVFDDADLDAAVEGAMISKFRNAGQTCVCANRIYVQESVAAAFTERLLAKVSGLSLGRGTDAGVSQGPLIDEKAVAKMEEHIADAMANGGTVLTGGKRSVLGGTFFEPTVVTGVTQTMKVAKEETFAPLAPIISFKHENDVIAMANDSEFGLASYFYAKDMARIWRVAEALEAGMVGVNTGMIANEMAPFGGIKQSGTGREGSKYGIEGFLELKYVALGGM

[2] = target: T1, RlGabD (SLA dehydrogenase); assay: cryo-EM structure of binary complex at […] Å; assay type: binding; set-up: gene EV132_10158; recombinant RlGabD tetramer
[3] = target: T1, RlGabD (SLA dehydrogenase); assay: biochemical; set-up: gene EV132_10158; recombinant RlGabD; nanoDSF thermal shift (F350/F330 intrinsic fluorescence) of recombinant RlGabD with ligand; settings: nanoDSF, average of 2 replicates; read-out: ∆Tm (Avg); remark: listed apart in the source
[4] = target: SLA dehydrogenase RlGabD from Rhizobium leguminosarum SRDI565 (Rhizobium leguminosarum bv. trifolii SRDI565); assay: SEC-MALS; SEC-MALLS of RlGabD in solution; homotetramer
[5] = target: T1, RlGabD (SLA dehydrogenase); assay: enzyme inhibition assay with constant SLA and NAD+; assay type: biochemical; set-up: gene EV132_10158; recombinant RlGabD
purified protein [6] = substrate: NC(=O)c1ccc[n+]([C@@H]2O[C@H](COP(=O)([O-])OP(=O)(O)OC[C@H]3O[C@@H](n4cnc5c(N)ncnc54)[C@H](OP(=O)(O)O)[C@@H]3O)[C@@H](O)[C@H]2O)c1; assay: purified protein; settings: […]′-phosphate binding residues Ser179 and Lys182 (E. coli SSADH numbering) conserved; varied: cofactor
purified protein [7] = substrate: O=CC(O)COP(=O)(O)O; assay: purified protein; settings: NADP+
purified protein [8] = substrate: NC(=O)c1ccc[n+]([C@@H]2O[C@H](COP(=O)([O-])OP(=O)(O)OC[C@H]3O[C@@H](n4cnc5c(N)ncnc54)[C@H](O)[C@@H]3O)[C@@H](O)[C@H]2O)c1; assay: purified protein; assay type: biochemical, Rhizobium leguminosarum; settings: binds first to enzyme (rapid equilibrium ordered mechanism); varied: cofactor
purified protein [9] = substrate: O=CC(O)CS(=O)(=O)O; assay: purified protein; assay type: biochemical, Rhizobium leguminosarum; settings: NAD+ proposed: Cys295 nucleophile, Glu261 general base, Asn163 oxyanion hole, Arg171/Arg289 sulfonate binding

Q: Which ΔTm at 10000 µM [1] does the source give for `NC(=O)c1ccc[n+]([C@@H]2O[C@H](COP(=O)([O-])OP(=O)(O)OC[C@H]3O[C@@H](n4cnc5c(N)ncnc54)[C@H](O)[C@@H]3O)[C@@H](O)[C@H]2O)c1` [NAD^+] here?
A: 4.3 °C

Q: Which “cryo-EM structure of binary complex at 2.52 Å” value [2] does the source give for `NC(=O)C1=CN([C@@H]2O[C@H](COP(=O)(O)OP(=O)(O)OC[C@H]3O[C@@H](n4cnc5c(N)ncnc54)[C@H](O)[C@@H]3O)[C@@H](O)[C@H]2O)C=CC1` [NADH] here?
A: The RlGabD·NADH complex shows the binding mode and positioning of the cofactor.

Q: What about the ΔTm at 10000 µM [1] of the same molecule?
A: 1.5 °C

Q: For `NC(=O)c1ccc[n+]([C@@H]2O[C@H](COP(=O)([O-])OP(=O)(O)OC[C@H]3O[C@@H](n4cnc5c(N)ncnc54)[C@H](OP(=O)(O)O)[C@@H]3O)[C@@H](O)[C@H]2O)c1` [NADP^+], which ΔTm at 10000 µM [1] is on record?
A: 3.5 °C

Q: Which ΔTm at 10000 µM [3] does the source give for `NC(=O)C1=CN([C@@H]2O[C@H](COP(=O)(O)OP(=O)(O)OC[C@H]3O[C@@H](n4cnc5c(N)ncnc54)[C@H](OP(=O)(O)O)[C@@H]3O)[C@@H](O)[C@H]2O)C=CC1` [NADPH] here?
A: 2.5 °C

Q: Which stoichiometry N [4] does the source give for “SLA dehydrogenase RlGabD from Rhizobium leguminosarum SRDI565 (enzyme)” here?
A: 4

Q: With `NC(=O)C1=CN([C@@H]2O[C@H](COP(=O)(O)OP(=O)(O)OC[C@H]3O[C@@H](n4cnc5c(N)ncnc54)[C@H](O)[C@@H]3O)[C@@H](O)[C@H]2O)CCC1` [tetrahydro-NADH] as the molecule, how does the IC50 [5] read?
A: 28 µM

B1: RlGabD (SLA dehydrogenase) (Rhizobium leguminosarum bv. trifolii SRDI565) (protein)
chain: T1 sequence (A0AAJ6N661 1-489)
notes: recombinant RlGabD
Q: What does the source list for B1?
A: Km (purified protein [6]): 17 ± 4.1 µM; kcat (purified protein [6]): 4.1 s⁻¹; kcat/Km (purified protein [6]): 240000 M⁻¹ s⁻¹; Km (purified protein [7]): 170 ± 28 µM; kcat (purified protein [7]): 3 s⁻¹; kcat/Km (purified protein [7]): 10500 M⁻¹ s⁻¹; Km (purified protein [8]): 81 ± 19 µM; kcat (purified protein [8]): 17.7 ± 3.2 s⁻¹; kcat/Km (purified protein [8]): 210000 ± 63000 M⁻¹ s⁻¹; Km (purified protein [9]): 130 ± 40 µM; kcat (purified protein [9]): 17.8 ± 7 s⁻¹; kcat/Km (purified protein [9]): 137000 ± 72000 M⁻¹ s⁻¹
